# Source: the nanobody polyreactivity screen of Harvey et al. (2022)
# Test: yeast display, Sf9 membrane polyspecificity reagent, FACS + sequencing; frameworks hold sequencing errors
# Summary of the method: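 Sorting gates, low and high (top ~1%), were placed on anti-HA fluorescence to track expression and on streptavidin fluorescence to track reagent binding. A clone's polyreactivity label is taken from the gate it came out of. The reagent was 10% biotinylated, detergent-solubilized Sf9 membrane, applied for 1 hour at 4 °C to galactose-induced yeast display cells.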
row,Sequence,polyreactivity (PSR sort gate)
1,QVQLVESGGGIVLAGGSLRLSCAASGSIYYANAMGWYRQAPGKERELVAVISSGGSTYYADSVNGRFTISRDNAKNTVYLHMNSLKPEDTAVYYCAAETYYYVLPHWYKYKYGYWGQGTQVTVSS,low polyreactivity
2,QVQLVESGGGIVQAGCSLRIICAASGYTFGYYAMGSYRQAPGNERQFVAAITIDARTTYADSVKGRFTISRDKAKKTFYLQINSLKADDTAFYYCARGYFPYGYPWRWGYDRFDYWGQGTLVTVSS,low polyreactivity
3,QVQLVESGGGIVQAGGSLGLSCGASGRTCRKFSMGWYSQAPGNAWEVVAAISSRGGSTYYADSVKGRFTSSRDNAKNTVYLQMNSLIPEDTAVYYCATDSIPPSSEGDYWGQGTQGTVSS,high polyreactivity
4,QVQLVESGGGIVQAGGSLRISSSASGRIITAYAMGWYRQAPGKERELVAAITRSTTYYADSVKGRFTISRDNAKFSVDLQLHSLKPDDTAVFYCAADYRGTWYGYDYWGQGTHVTVSS,high polyreactivity
5,QVQLVESGGGIVQAGGSLRLICAASGFIFEFNVMGWYRQSPGKERQLVAAISRSGGSTYYADSVKGRFTISRDNAKNTVYLQMISLKPEDSAVYYCAARSYRSGTHGYNYWGQGTQVTVSS,high polyreactivity
6,QVQLVESGGGIVQAGGSLRLICAASGFTFSYYAMAWYRQAPGKEREFVAAITRSGSTYYADSVKGRFTISRENAKNTVYLQMISLKPEDTSVYYCAARFLYRYDYWGQGTQVTVSS,high polyreactivity
7,QVQLVESGGGIVQAGGSLRLICAASGFTFWDYAMGWHRQAPGKERELVAAISWSGGSTYYADSVKGRFTISRDNAKNTVYLQMNSLKPEDTAVYYCNAVHYSRYVHPGHSMYYWGQGTQVTVSS,low polyreactivity
8,QVQLVESGGGIVQAGGSLRLICAASGITFTVYAMGWDRTAPWKARELVAASCSSGSTTYADSVKGRFTFSRDNAKNTVYLQMNSVKPQDPAVYYCAAEGYYRFSTAYFRKKYEYWGQGTQVTVSS,low polyreactivity
9,QVQLVESGGGIVQAGGSLRLICAASGRTFKYYAMGWYRQAPGKERELVAAIRSRTGSTYYADSVKGRFTISRDNAKNTVYLQMNSLKPVDTAVYYCAAQPGSYYGPRWYYDDDYWGQGTQVTVSS,high polyreactivity
10,QVQLVESGGGIVQAGGSLRLICAASGSIFNGYALGWYRQAPGKERDLVAAISWRGGTTYYADSVKGRFSISRDTAKNTVYLQMNSLKPEDTAVYYCAARHFARMGYWGQGTQVTVSS,high polyreactivity
11,QVQLVESGGGIVQAGGSLRLISAASGIIIDYYAMGWYRQAPGKERELVAAITSGGSTSYADSVKGRFTISRDNAKNTVYLQMNSLKAEDTAVYYCNTEPSGYESGYWGQGTLVTVSS,low polyreactivity
12,QVQLVESGGGIVQAGGSLRLRCAASGLIFAYNAMGGDRQAPGKEREFVAAINSGGDSTYYADCVKGRFTISRDNAKNTVYLQMNSLKPEDTAVYYCAAVSGNKRYYYWGHGTQVTVSS,low polyreactivity
13,QVQLVESGGGIVQAGGSLRLSCAASARIFGYNAMGWYRQAPGKERELVADITGSGGSTYYADSVKGRFTISRDNAKNTVYLQMNSLKPEDTAVYYCATPYAVYHVEYGYWGQGTQVTVSS,low polyreactivity
14,QVQLVESGGGIVQAGGSLRLSCAASGFIFQRYVMGWYRQEPGKERQLVAAISSGGSTNYADSVKGRFTISRDNAKNTVYLQMNSLKAEDTAVYYFAADGFYYRNWGRFRYYYWGLGTQVTVSS,low polyreactivity
15,QVQLVESGGGIVQAGGSLRLSCAASGFIIGYNAKGWYRQAPGKETELVAAITSRGVRTYYADCVKWRFTISRDNAKNTVYLQMNSLKPEDTAVYYCAKASRGYRSPYGSIGYYYWGQGTQVTVSS,high polyreactivity
16,QVQLVESGGGIVQAGGSLRLSCAASGFIISPNAMGWYRHAPGKEREFVAAIRYSGTSTSYADSVKGRFTISRDNGKNTVYLQMNSLKPEDTAVYYCAAQYRQRTGMYYWGQGSQVTVSS,high polyreactivity
17,QVQLVESGGGIVQAGGSLRLSCAASGFTFDIYAMGWYRQAPGTERELVATISFTGDTTSYADSVKGRFTISRDNAKNTVYLQMNSLKPEDTAVYYCAADGSYPLSVGRENLHYAEFDYWGQGTQVTVSS,low polyreactivity
18,QVQLVESGGGIVQAGGSLRLSCAASGFTFDYYAMGWYRQAPGKERELVAAISWRGTTTYYADSVKGRFTISRDNAKNTVYLQMNSLKPEDTAVYYCAADSLFGHYDYWGQGTQVTVSS,low polyreactivity
19,QVQLVESGGGIVQAGGSLRLSCAASGFTFKYYARGWYRQAPGKERELVAAIRGSGAGTYYADSVKGRFTISRDNAKNTGYLQMNSLKPEDTAVYYCNKRWTYKWDDYWGQGTQVTVSS,high polyreactivity
20,QVQLVESGGGIVQAGGSLRLSCAASGFTFSSYAMGWYRQAPGKERELVAAISSGGGSTYYADSVKGRFTISRDNAKNTVYLQMNSLKPEDTAVYYCAASHYYSNGYWGQGTQVTVSS,high polyreactivity
21,QVQLVESGGGIVQAGGSLRLSCAASGFTFWVYAMGWSRQAPGNEWQLVAAISARGGSTYYADSVKVRFTISRDNAKNTVYLQMNSLKPVDTEVYYCAAEPSGKRSKFYYWGHGTQVTVSS,high polyreactivity
22,QVQLVESGGGIVQAGGSLRLSCAASGFTIWKYAMGLYRQAPGKERELVAAISVSGGRTNYADSVKGRFTISGDNAKNTVYLQMNSLKPEDTAVYYCIATPWRPYVGGEYWGQGTHVTVSS,high polyreactivity

row,Sequence,polyreactivity (PSR sort gate)
1,QVQLVESGGGIVQAGGSLRLSCAASGGTFQRNAMGWYIQAPGKEREFVATITRGGGSTYYADSVKGRFTISRDNAKNTVYFQMNSLKPEDSAVYYCNANTSYYQRYNYWGQGTQVTVSS,high polyreactivity
2,QVQLVESGGGIVQAGGSLRLSCAASGGTFRVNAMVWYRQAPGKEREFVAAISGSGSSTYYADSVKGRFTISRDNAKNTVYLQMNSLKPEDTAVYYCAARSGVGGDNDYWGQGTQVTVSS,low polyreactivity
3,QVQLVESGGGIVQAGGSLRLSCAASGIIFDINSMGWYRQAPGKERELVAAITTSVDSTYYAHSVKGRFTISRDNAKNTVYLQMYSLQPEDTAVYYCSVSFVQFTQYDYWGQGTQVTVSS,low polyreactivity
4,QVQLVESGGGIVQAGGSLRLSCAASGIIFDVYAMGLYRQAPGTERELVAAISKRGGRTYYADSVKWRFTISRDNAKNTVYLQMNSLKPEDTAVYYCAADGQYKHFDYWGQGTQVTVSS,high polyreactivity
5,QVQLVESGGGIVQAGGSLRLSCAASGIIFRFYAMGWYRQAPGKERELVARIRSRGGSTYYADSVKGRFTISRDNAKNTVYLQMNSLKPEDTAVYYCAAGAGYPYYWGQGTQVTVSS,high polyreactivity
6,QVQLVESGGGIVQAGGSLRLSCAASGIIFSANAMGWYRQAPGKERELVAAISRAGSTNYADYVKGRFTISRDNAKNTVYLQMNSLKPEDTAVYYCAAGGGFYFIWTMDYWGQGTQVTVSS,low polyreactivity
7,QVQLVESGGGIVQAGGSLRLSCAASGIIIAVYAMGWYRQAPGKERELVAAISWSSGNTYYADSVKGRFTISRENAKNTVYLQMNSLNPEDTAVYYCAAVSRYKYDYWGQGTQVTVSS,high polyreactivity
8,QVQLVESGGGIVQAGGSLRLSCAASGITFQRNALGWYRQAPGKERELVAAISKSGGSTYYADSVKARFTISRDNAKNTVYLQMNSLKPEDTAVYDCAAPVWRYYRGKTFDFWGQGTQVTVSS,high polyreactivity
9,QVQLVESGGGIVQAGGSLRLSCAASGLIFYNYAMGWYRQAPGKERELVAAITSGGSTYYADSVKGRFTISRDNAKNTVYLQMNSLKPEDTAVYYCAADLTYTVPFDYWGQGTQVTVSS,high polyreactivity
10,QVQLVESGGGIVQAGGSLRLSCAASGLIFYTYAMGWYRQAPGKERELVATISWDVDSTNYADSVKGRFTISRDNAKNTVYLQMNSLKPEDTAGYYCAVDSTFDSYWYWVDYYEYGYWGQGTQVTVSS,high polyreactivity
11,QVQLVESGGGIVQAGGSLRLSCAASGLILANNAMGRYRQAPGKETELVATISSSGGRTSYADSVKGRFTISRDNAKNTVYLQMNSLKPEDTAVYYCAKYCGRYPHGRSWYDYWGQGTQVTVSS,high polyreactivity
12,QVQLVESGGGIVQAGGSLRLSCAASGLNFYWYAMGWYRQAPGKERELVAAITWSGGITYYADSVKGRFTISRDNANNTVYLQMNSLNPEDTAVYYCADDDDYGDVTYDYWGHGTQVTVSS,low polyreactivity
13,QVQLVESGGGIVQAGGSLRLSCAASGLTFPPNAMGWYRPAPGKEREFVAVISSGGGSTYYADSVKGRFTISRDNAKNTVYSQMNSLKPEDTAVYYCATEYQDGDTEYYYWGQGTQVTVSS,low polyreactivity
14,QVQLVESGGGIVQAGGSLRLSCAASGLTFRYYAMGWYRQAPGKERELVAAISGSGGSTYYADSVKGRFTISRDNAKNTVYLQLNRLKPEDTAVYYFASENESSSWGDYAMGYWGQGTQVTVST,high polyreactivity
15,QVQLVESGGGIVQAGGSLRLSCAASGNTFGYYAMGWYRPAPGKERELVASISYSGGSTYADSVKGRFTISRDNAKNTVYLQMNSLKPEDTAVYYCAADYWIYAADSWVLYDSWGQGTQVTVSS,low polyreactivity
16,QVQLVESGGGIVQAGGSLRLSCAASGNTFHTYAMGWNRQAPVKERELVAAISSRGVGTYYADSVKGRFTISRDNAKNTVYLQMNSLKPEDTAVYYCAARHHPEYYYWGQGTQVTVSS,high polyreactivity
17,QVQLVESGGGIVQAGGSLRLSCAASGRICIINAMGWYRQATGKERELVAAISTSGGRTYYADSVKGRFTISRDNAKNTVYLQKNSLKPVDTAVYYCNAGRGYRYYRSVGSSPYEYWGQGTQVTVSS,high polyreactivity
18,QVQLVESGGGIVQAGGSLRLSCAASGRIFAFNAMGWYRPAPGKERELVADITSSGVNTYYADSVKGRFTISRDNAINTVYLQMNSLKPEYTAVYYCAARSYLRWWVGMEYWGQGTQVTVSS,low polyreactivity
19,QVQLVESGGGIVQAGGSLRLSCAASGRIFAYYAMGWYRQAPGKERELVAAISSSGGGTYYAYSVKGRFTISRDNAKNTVYLQMTSLKPEDTSVYYCAKRVPRKSSVSHPYDYWGQGTQVTVSS,high polyreactivity
20,QVQLVESGGGIVQAGGSLRLSCAASGRIFFGYAMGWYRQAPGKERELVAAITSGGSTYYADSVKGRFTISRDNAKNTDYLQMYSLKTEDTAVYYCAAVRWYGSKRYGYWGQGTQVTVSS,high polyreactivity
21,QVQLVESGGGIVQAGGSLRLSCAASGRIFPYNAMGWYIQAPGKERELVAAIRWSGGNTYYADSVKGRFTISRDNAKNTVYLQMNSLKPEDNAVYYCAKYRRSFGFDYWGQGTQVTVSS,high polyreactivity
